Measurements: US10995119B2, “Peptide exhibiting hydrolytic activity and use thereof” (Okinawa Institute of Science and Technology School …, priority 2016, dated 2021)

Assays:
Aβ1-20 = Aβ1-20 (Homo sapiens, UniProt P05067); assay: Hydrolysis activity against Aβ1-20
Experimental: (§4) Further, any change in activity caused by addition of human serum albumin (HSA, Wako Pure Chemical Industries, Ltd., final concentration 0.025%) also was measured.
(§5) As substrates, Aβ42 in the form of soluble powder (authentic sample, Peptide Institute Inc.) and fragment peptides thereof, namely, Aβ1-20, Aβ11-29, and soluble Aβ28-42, were used. […] In the case of MS analysis, the MS analysis was performed after applying 20 μl of the reaction solution to HPLC and collecting an aliquot of the peak.
(§6) The present experiment examined activity against Aβ-Fs in Example 7.
(§7) As substrates, the same Aβ1-20 and Aβ11-29 as used in Example 7 were used.

[1] = target: soluble Aβ1-42 (Aβ42 authentic sample) (Homo sapiens, UniProt P05067); assay: Hydrolysis activity against soluble Aβ1-42 (authentic sample)
Experimental: as §5
Aβ42 was used as a substrate. […] In the case of MS analysis, the MS analysis was performed after applying 20 μl of the reaction solution after the reaction for 7 days to HPLC and collecting an aliquot of the peak.

[2] = Autodigestion of the catalytic peptide (HPLC, MS); format: biochemical
Experimental: First, to a buffer solution (Tris-HCl, pH 6.5, final concentration: 100 mmol/l), JAL (final concentration: 0.2 mmol/l) and the fragment peptide of hMMP7 (final concentration 0.05 mmol/l) were added. […] Thereafter, the reaction solution was subjected to HPLC, and the peaks of JAL and the fragment peptide of hMMP7 were examined. HPLC was performed under the following conditions.
Next, the mechanism of autodigestion was examined using various mutants of JAL as hydrolytic peptides. To a reaction solution containing each of the mutants of JAL, a protease inhibitor (trade name: Roche cOmplete, Roche) was added to cause a reaction. One tablet of the protease inhibitor was dissolved in 1 ml of Milli-Q water, and then, 50 μl of the resultant mixture was added to the reaction solution. […] As a result, the autodigestion of all the peptides subjected to the measurement was inhibited (FIG. 16).
Autodigestion in Box B was examined.
JAL-TA9 was reacted in the same manner except that a substrate was not added to examine the autodigestion of JAL-TA9.
The influence of an inhibitor on autodigestion of JAL-TA9 was examined. […] As the protease inhibitor, the serine protease inhibitor AEBSF, which inhibited the autodigestion of JAL 12-22 C19M in the item (6) in Example 4, was used.

Aβ42 = Aβ42 (Homo sapiens, UniProt P05067); assay: Intermolecular interaction with Aβ42 (AFFINX QNμ); format: binding; settings: JAL-TA9 immobilized on platinum electrode
Excerpt: (§1) Intermolecular interactions of JAL-TA9 with Aβ42 and with Aβ-F were examined using an AFFINX QNμ (trade name, INITIUM, Inc.) in accordance with its protocol. The results obtained are shown in the graphs of FIG. 40. In FIG. 40, X indicates the result obtained when JAL-TA9 was not immobilized on a platinum electrode, and Y indicates the result obtained when JAL-TA9 was immobilized on the platinum electrode.

Tau MBD 1-30 = Tau MBD 1-30 (Homo sapiens, UniProt P10636); assay: Hydrolysis activity against Tau MBD 1-30; format: biochemical
Excerpt: As a substrate, a Tau microtubule binding domain (MBD)-derived fragment (Tau MBD1-30) was used.

Aβ1-20 and Aβ11-29 = assay: Reaction rates / Km for Aβ1-20 and Aβ11-29; format: biochemical; settings: Aβ-F 0.05, 0.2 or 0.4 mmol/l, 0 or 1 hour
Experimental: HPLC was performed with the Aβ-F concentration in a reaction solution being set to 0.05, 0.2, or 0.4 mmol/l and a reaction time being set to 0 hours or 1 hour. Then, on the basis of the reduction rate of the peak of each Aβ-F, the Km value was determined.

solid (insoluble) Aβ1-42 = solid (insoluble) Aβ1-42 (Homo sapiens, UniProt P05067); assay: Hydrolysis activity against solid (insoluble) Aβ1-42
Experimental: As a solid substrate, a crystal of Aβ42 was used. […] In the case of MS analysis, the MS analysis was performed after applying 100 μl of the reaction solution to HPLC and collecting an aliquot of the peak.

Aβ28-42 = Aβ28-42 (Homo sapiens, UniProt P05067); assay: Hydrolysis activity against Aβ28-42; format: biochemical
Aβ11-29 [3] = target: T1, Aβ11-29 (Homo sapiens, UniProt P05067); assay: Intermolecular interaction with Aβ11-29 (AFFINX QNμ); format: binding; settings: JAL-TA9 immobilized on platinum electrode
Excerpt: as §1

αA-crystallin = target: T2, αA-crystallin (Homo sapiens, UniProt P02489); assay: Degradation of αA-crystallin 71-88 fragment peptide; format: biochemical
T2 construct: consisting of 71-88 residues of αA-crystallin; made in house; host or cells: chemical synthesis (Setsunan University)
Excerpt: As a substrate, a fragment peptide with the following sequence consisting of 71-88 residues of αA-crystallin (synthesized in Setsunan University) was used.

Aβ11-29 [4] = target: T1, Aβ11-29; assay: Hydrolysis activity against Aβ11-29
Experimental: as §4, §5
As a substrate, Aβ11-29, which is a fragment peptide of Aβ42, was used. […] In the case of MS analysis, the MS analysis was performed after applying 20 μl of the reaction solution after the reaction for 6 days to HPLC and collecting an aliquot of the peak.
as §6
The reaction solution V shown in FIG. 52 was incubated at 37° C. for a predetermined time, and autodigestion of ANA-YA4 (YRMI) and cleavage of Aβ11-29 were examined.
A reaction solution VI shown in FIG. 52 was incubated at 37° C. for a predetermined time, and cleavage of Aβ1-20 and Aβ11-29 by ANA-SA5 was examined.
as §7
The present example examined autodigestion and activity against Aβ-F of JAL 12-17 (YKGSGF) and JAL 12-16 (YKGSG). […] As a substrate, the same Aβ11-29 as used in Example 7 was used. The autodigestion was examined by causing the reaction in the same manner, except that the substrate was not added.

SOD1 2-38 = SOD1 2-38 (Homo sapiens, UniProt P00441); assay: Hydrolysis activity against SOD1 2-38; format: biochemical; settings: Example 3 (1); substrate SOD1 2-38 or SOD1 2-12
Experimental: As a control, physiological saline (0.9 w/v %) was used instead of the buffer solution. […] Also, it is considered that physiological saline is suitable for storage of JAL before use, for example.
Next, an experiment was conducted to consider an optimal pH for activity using JAL as the hydrolytic peptide and SOD1 2-38 as a substrate.
Metal ions to be added to a reaction solution were Zn^2+, Ca^2+, Co^2+, or combinations thereof. The concentrations of the metal ions in the respective reaction solutions were as follows: 10 mmol/l for Ca^2+; and 5 μmol/l for the other metal ions.
(§2) In JAL 1-22 C19M and JAL 7-22 C19M, Cys residues contained in JAL form S—S bonds during a reaction, and this makes fragment analysis difficult. On this account, JAL 1-22 and JAL 7-22 were modified so as to substitute Cys residues by Met.

[5] = target: T3, bovine serum albumin (BSA) (Bos taurus, UniProt P02769); assay: Cleavage of BSA as substrate; format: biochemical; settings: BSA 0.025%
T3 construct: purchased Wako Pure Chemical Industries, Ltd
Experimental: (§3) On the other hand, by adding either HSA or BSA to the reaction solution, autodigestion of JAL 7-22 C 19M was […]. […] Since serum albumin is present in the body, it is considered that the hydrolytic peptide is suitable for use in the body. In experiments to be described below, the hydrolysis activity of JAL was measured in a reaction solution containing HSA.

SOD1 2-12 = SOD1 2-12 (Homo sapiens, UniProt P00441); assay: Hydrolysis activity against SOD1 2-12; format: biochemical; settings: Example 3 (1); substrate SOD1 2-38 or SOD1 2-12
Excerpt: as §2

[6] = target: T4, human serum albumin (HSA) (Homo sapiens, UniProt P02768); assay: Cleavage of HSA as substrate; format: biochemical; settings: HSA 0.025%
T4 construct: purchased Wako Pure Chemical Industries, Ltd
Experimental: as §3

[7] = reaction solution composition 1 (PBS, HSA), 37° C., overnight

Tau MBD 1-30, sequence (P10636 609-638 limits assumed): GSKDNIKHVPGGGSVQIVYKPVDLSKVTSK
SOD1 2-38, sequence (P00441 2-38 limits assumed): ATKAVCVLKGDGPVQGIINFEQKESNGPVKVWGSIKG
T3 sequence (P02769 25-607): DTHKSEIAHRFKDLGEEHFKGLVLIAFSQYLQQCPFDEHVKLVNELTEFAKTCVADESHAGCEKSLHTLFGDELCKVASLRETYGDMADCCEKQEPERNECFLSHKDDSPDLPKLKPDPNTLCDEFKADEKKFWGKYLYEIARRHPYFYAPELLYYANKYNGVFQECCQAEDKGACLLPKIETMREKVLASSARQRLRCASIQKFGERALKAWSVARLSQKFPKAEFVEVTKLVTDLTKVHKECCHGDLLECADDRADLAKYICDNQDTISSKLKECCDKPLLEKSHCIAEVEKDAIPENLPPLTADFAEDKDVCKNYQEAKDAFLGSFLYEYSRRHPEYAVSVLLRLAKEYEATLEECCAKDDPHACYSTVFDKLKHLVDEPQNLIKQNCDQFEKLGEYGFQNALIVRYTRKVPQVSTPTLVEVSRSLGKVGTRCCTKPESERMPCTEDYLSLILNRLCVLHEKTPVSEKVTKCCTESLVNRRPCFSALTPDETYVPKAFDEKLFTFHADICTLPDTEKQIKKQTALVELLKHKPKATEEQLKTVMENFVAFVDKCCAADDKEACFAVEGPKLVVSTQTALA

PYKGSGFRMI [JAL-TA9]
cleavage sites in Aβ-Fs (MS) (Aβ1-20; Example 7): cleaved at a plurality of sites | degradation of Aβ-Fs (HPLC) (Aβ1-20; [7]): degraded all the Aβ-Fs | degradation of Aβ42 (HPLC) ([1]; authentic sample Aβ42, reaction solution composition 1): degraded both types of Aβ42 | cleavage sites in Aβ42 (MS) ([1]; soluble authentic sample, 7 days): cleaved at a plurality of sites | region of Aβ42 cleaved ([1]; summary of cleavage sites, FIG. 39): strong cleavage activity was exhibited against an intermediate region of Aβ42 | autodigestion in presence of protease inhibitor ([2]; AEBSF 6 mmol/l): autodigestion was inhibited | autodigestion ([2]; Example 7, substrate not added): autodigestion of JAL-TA9 was observed | autodigestion ([2]; Example 13, with αA-crystallin fragment): digested itself | autodigestion in presence of protease inhibitor ([2]; reaction solution IV, 6 hours): inhibited by the protease inhibitor | intermolecular interaction (Aβ42): strong interaction | fragment identification by MS (Tau MBD 1-30; reaction for 1 day): fragments of Tau MBD 1-30 resulting from the cleavage by JAL-TA9 | fragment identification by MS (Tau MBD 1-30; reaction for 5 days): fragments of Tau MBD 1-30 resulting from the cleavage by JAL-TA9 | degradation of Tau MBD 1-30 (HPLC) (Tau MBD 1-30; reaction solution composition 3, 37° C., overnight): degraded Tau MBD 1-30 | Km value, affinity of substrate to peptide (Aβ1-20 and Aβ11-29): Aβ11-29 has higher affinity to JAL-TA9 than Aβ1-20 | cleavage of solid Aβ42 (MS) (solid (insoluble) Aβ1-42; solid Aβ42): activity against the solid Aβ42 also was observed | degradation of Aβ42 (HPLC) (solid (insoluble) Aβ1-42; solid Aβ42, reaction solution composition 2): degraded both types of Aβ42 | cleavage sites in Aβ-Fs (MS) (Aβ28-42; Example 7): cleaved at a plurality of sites | degradation of Aβ-Fs (HPLC) (Aβ28-42; [7]): degraded all the Aβ-Fs | intermolecular interaction (Aβ11-29 [3]): strong interaction | fragment identification by MS (αA-crystallin): fragments of αA-crystallin resulting from the cleavage by JAL-TA9 were detected | degradation of αA-crystallin (αA-crystallin; JAL-TA9 0.2 mmol/l, PBS, HSA, reaction for 1 day): could degrade αA-crystallin | cleavage sites in Aβ-Fs (MS) (Aβ11-29 [4]; Example 7): cleaved at a plurality of sites | degradation of Aβ-Fs (HPLC) (Aβ11-29 [4]; [7]): degraded all the Aβ-Fs

YPEKPYKGSGFRMIHI [JAL 7-22 C19M]
hydrolysis activity of JAL mutants (SOD1 2-38): exhibited hydrolysis activity | hydrolysis activity against Aβ1-20 (Aβ1-20; Example 3 (2), (6)): exhibited activity | autodigestion in presence of protease inhibitor ([2]; HSA added, Roche cOmplete or AEBSF): fragments generated by autodigestion disappeared | autodigestion, effect of albumin ([2]; HSA or BSA (0.025%) added): enhanced | cleavage of albumin as substrate [5]: cleavage by JAL was not observed | hydrolysis activity of JAL mutants (SOD1 2-12): exhibited hydrolysis activity | cleavage of albumin as substrate [6]: cleavage by JAL was not observed
